The values that follow come from patent US20230372399A1.

Common to all, as to assay: cell-based or functional assay
Experiment [1] has as its target TGFβ1 (R&D systems) (UniProt P01137).
Experiment [2] shares this target. The source holds these as a separate data set.
The target in experiment [3] is IL-2Rαβγ (on CTLL-2 cells).
Experiment [4] concerns the target IL-2Rβ and common γ chain (on 32Dβ cells).
The target is the same in experiment [5]. The source holds these as a separate data set.
Experiment [6] shares this target. This is another data set of the same source.
The target in experiment [7] is IL-21R (on B9 cells).

Like-named read-outs stand apart in the source and are kept apart here.

TGFβ1 (R&D systems), sequence (P01137 279-390 limits assumed): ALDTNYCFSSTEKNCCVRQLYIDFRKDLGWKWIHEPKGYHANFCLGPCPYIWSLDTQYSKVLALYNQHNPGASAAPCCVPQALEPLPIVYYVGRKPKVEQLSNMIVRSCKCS
TGFR-Fc (R&D Systems), sequence (P37173 24-159): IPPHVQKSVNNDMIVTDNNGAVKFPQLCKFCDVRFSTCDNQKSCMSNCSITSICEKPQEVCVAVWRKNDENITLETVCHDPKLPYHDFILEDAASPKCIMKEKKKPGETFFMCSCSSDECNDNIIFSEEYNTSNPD

For “TGFR-Fc (R&D Systems) (from UniProt P37173 24-159) (Fc fusion)”, the IC50, inhibition of TGFβ1 activity, HEK-Blue TGFβ reporter cells in experiment [1] was found to be 0.461 nM; in experiment [2] it was 0.559 nM.

As for “recombinant IL-2 (from UniProt P60568 21-153) (ligand)”, in experiment [3], the EC50, CTLL-2 cell proliferation (WST-1) is 0.548 nM.

As for “recombinant IL-15 (from UniProt P40933 49-162) (ligand)”, the EC50, 32Dβ cell proliferation (WST-1) in experiment [4] came out at 0.0106 nM; in experiment [5], 0.0016 nM; in experiment [6], 0.0166 nM. Moreover, in experiment [3], the EC50, CTLL2 cell proliferation (PrestoBlue) was determined as 0.00495 nM. This substance yielded an EC50, CTLL2 cell proliferation (WST-1) in experiment [3] of 0.00622 nM.

“recombinant IL-21 (from UniProt Q9HBE4 32-162) (ligand)” returned an EC50, B9 cell proliferation (WST-1) in experiment [7] of 72.5 nM.
